# Laboratory results published in article PMC12746484, “Growth-coupled selection of 5-aminolevulinic acid synthetase mutants for 5-aminolevulinic acid biosynthesis in Corynebacterium glutamicum” (Frontiers in Microbiology, 2025).
# Experiments:
# [1] = test system: T1, CC(C)(COP(=O)(O)OP(=O)(O)OC[C@H]1O[C@@H](n2cnc3c(N)ncnc32)[C@H](O)[C@@H]1OP(=O)(O)O)[C@@H](O)C(=O)NCCC(=O)NCCSC(=O)CCC(=O)O; experiment: steady-state kinetics, 5-ALA formation, nonlinear Michaelis-Menten fit; format: biochemical, Rhodobacter capsulatus; settings: 37 °C, Tris pH 7.5, pyridoxal phosphate, co-substrate glycine, succinyl-CoA 5-150 μM
# T1 construct: codon-optimized hemA cloned in pET28a, expressed in E. coli BL21(DE3), Ni-NTA purified
# Description: (§1) steady-state kinetics, 5-ALA formation, nonlinear Michaelis-Menten fit on ALAS from Rhodobacter capsulatus SB1003 (hemA^Rc; pET28a-SB)
# [2] = test system: T2, NCC(=O)O; experiment: as above; format: biochemical, Rhodobacter capsulatus; settings: 37 °C, Tris pH 7.5, pyridoxal phosphate, co-substrate succinyl-CoA, glycine 1-40 mM
# T2 construct: codon-optimized hemA cloned in pET28a, expressed in E. coli BL21(DE3), Ni-NTA purified
# Description: as §1
# Sequence of ALAS from Rhodobacter capsulatus SB1003 (hemA^Rc; pET28a-SB) (Rhodobacter capsulatus SB 1003) (chain, as listed by the source): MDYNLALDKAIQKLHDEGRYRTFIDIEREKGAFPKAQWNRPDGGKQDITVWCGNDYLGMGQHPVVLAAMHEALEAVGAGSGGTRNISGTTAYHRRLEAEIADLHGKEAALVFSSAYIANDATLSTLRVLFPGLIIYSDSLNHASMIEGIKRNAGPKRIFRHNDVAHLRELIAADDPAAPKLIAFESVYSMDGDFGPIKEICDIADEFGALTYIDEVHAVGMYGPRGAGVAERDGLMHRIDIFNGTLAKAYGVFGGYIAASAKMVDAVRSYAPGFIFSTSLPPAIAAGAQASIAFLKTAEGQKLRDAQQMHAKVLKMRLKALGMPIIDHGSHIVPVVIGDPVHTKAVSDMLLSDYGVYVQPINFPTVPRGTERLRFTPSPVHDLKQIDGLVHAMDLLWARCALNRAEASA
# Sequence of ALAS from Rhodobacter capsulatus SB1003 (hemA^Rc; pET28a-SB) (Rhodobacter capsulatus SB 1003; E27V/F363Y/G105C) (chain, as listed by the source E27V F363Y G105C): as the sequence (chain, as listed by the source) above, with E27V, G105C, F363Y counted along it
Substance,Km [1] [µM],kcat [1] [s⁻¹],kcat/Km [1] [M⁻¹ s⁻¹],Km [2] [µM],kcat [2] [s⁻¹],kcat/Km [2] [M⁻¹ s⁻¹]
ALAS from Rhodobacter capsulatus SB1003 (hemA^Rc; pET28a-SB) (Rhodobacter capsulatus SB 1003; E27V/F363Y/G105C),16.88 ± 2.21,2.94 ± 0.15,170000 ± 20000,2130 ± 220,2.94 ± 0.15,1270 ± 180
ALAS from Rhodobacter capsulatus SB1003 (hemA^Rc; pET28a-SB) (Rhodobacter capsulatus SB 1003),17.5 ± 2.65,2.52 ± 0.22,140000 ± 30000,2660 ± 260,2.52 ± 0.22,950 ± 230
